Measurements: patent US20240417475A1 (AFFIMED, published 2024)

Columns and labels:
[1] = biological target: T1, human FOLR1 endogenously expressed on tumor cell lines (human, UniProt P15328 25-234); experiment: cell-based or functional assay
[2] = biological target: T1, human FOLR1 endogenously expressed on …; experiment: cell-based or functional assay; remark: listed apart in the source
[3] = biological target: T1, human FOLR1 endogenously expressed on …; experiment: flow cytometry on HCC-827 cells, 37 C, one-site fit of MFI, mean
Procedure: (§1) Cells were collected and centrifuged at 400×g, 5 min, 4° C. Cell pellets were resuspended in FACS buffer (PBS (Invitrogen, cat.: 392-0434) containing 2% h.i. FCS (Invitrogen, cat.: 10500-064), and 0.1% sodium azide (Sigma, cat.: S8032)) at 1-5×10⁶ cells/mL. 100 μL/well of the cell suspension were transferred into U-shaped, 96-well micro plates (0.1-0.5×10⁶ cells per well), cells were pelleted at 400×g, 5 min, 4° C., and resuspended in 100 μL/well of serial dilutions of the indicated antibodies in FACS buffer. After 40-50 min incubation at 37° C., cells were washed 3-times with ice-cold FACS buffer. […] After the final incubation step, cells were washed 2-times with ice-cold FACS buffer, and the cell pellet was resuspended in 100 μL FACS buffer. Fluorescence intensities of >1×10⁴ viable cells were analyzed by flow cytometry and the median fluorescence intensity (MFI) was determined for each sample.
(§2) Equilibrium dissociation constants (KD) of antibody binding, mean and standard deviation (SD) were calculated by plotting MFI values and fitting a non-linear regression model for one-site binding to hyperbolic dose-response curves using GraphPad Prism for Windows (v9; GraphPad Software; La Jolla California USA).
(§3) Specific antibody binding capacity (SABC) as a marker for FOLR1 expression level on cells was determined on all tumor cell lines using QIFIKIT.

[4] = biological target: T1, human FOLR1 endogenously expressed on …; experiment: flow cytometry on IGROV-1 cells, 37 C, one-site fit of MFI, mean
Procedure: as §1, §2, §3

[5] = biological target: T1, human FOLR1 endogenously expressed on …; experiment: flow cytometry on NCI-H2110 cells, 37 C, one-site fit of MFI, mean
Procedure: as §1, §2, §3

[6] = biological target: T2, CD16A endogenously expressed on primary human NK cells (human, UniProt P08637 17-254); experiment: flow cytometry on primary human NK cells, with against without 10 mg/mL polyclonal human IgG
T2 sequence (P08637 17-254 limits assumed): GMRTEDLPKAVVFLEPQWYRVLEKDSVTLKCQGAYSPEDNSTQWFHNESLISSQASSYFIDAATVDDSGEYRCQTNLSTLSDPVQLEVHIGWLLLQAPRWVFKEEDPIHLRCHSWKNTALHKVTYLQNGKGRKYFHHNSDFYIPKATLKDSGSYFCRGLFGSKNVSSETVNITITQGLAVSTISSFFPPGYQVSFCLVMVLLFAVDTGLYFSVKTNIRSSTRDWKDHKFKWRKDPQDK
Procedure: (§4) 4° C., and resuspended in 50 μL/well of diluted antibody constructs. […] After 40-50 minutes' incubation at 37° C., cells were washed 3-times with ice-cold FACS buffer. […] After the final incubation step, cells were washed 2-times with ice-cold FACS buffer, and the cell pellet was resuspended in 50 μL FACS buffer. Fluorescence intensity of >1×10⁴ viable cells was analyzed by flow cytometry and the median fluorescence intensity (MFI) was determined for each sample.
(§5) Equilibrium dissociation constants (KD) of antibody binding were calculated by plotting MFI values and fitting a non-linear regression model for one-site binding to hyperbolic dose-response curves using GraphPad Prism.

[7] = biological target: T2, CD16A endogenously expressed on primary …; experiment: flow cytometry on primary human NK cells, biotinylated antibody, 37 C, without IgG, mean of 4
Procedure: as §4, §5

[8] = biological target: T1, human FOLR1 endogenously expressed on …; experiment: flow cytometry on IGROV-1 cells (FOLR1 high) at 37 °C, FITC anti-human IgG detection
In short: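 Cells in PBS with 2% h.i. FCS and 0.1% sodium azide, 0.1-0.5×10⁶ per well, were incubated 40-50 min with serial antibody dilutions, then washed with ice-cold buffer. Median fluorescence intensity of >1×10⁴ viable cells was determined by flow cytometry.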

[9] = biological target: T1, human FOLR1 endogenously expressed on …; experiment: flow cytometry on OVCAR-3 cells (FOLR1 medium) at 37 °C, FITC anti-human IgG detection
Procedure: as §1

[10] = biological target: T2, CD16A endogenously expressed on primary …; experiment: flow cytometry on primary human NK cells, with 10 mg/mL polyclonal human IgG as competitor, range of 4 experiments
Procedure: as §4, §5

[11] = biological target: T2, CD16A endogenously expressed on primary …; experiment: flow cytometry on primary human NK cells, biotinylated antibody, 37 C, with 10 mg/mL polyclonal human IgG as competitor, mean of 4
Procedure: as §4, §5

[12] = biological target: T2, CD16A endogenously expressed on primary …; experiment: flow cytometry on primary human NK cells at 37 °C, biotinylated antibody, streptavidin-FITC, without polyclonal human IgG
Procedure: (§6) Frozen NK cells were thawed, and viability was determined with trypan blue (Sigma-Aldrich, cat.: T8154). Cells have been centrifuged at 400×g, 5 min, 4° C. Cell pellets were resuspended in FACS buffer PBS (Invitrogen, cat.: 392-0434) containing 2% h.i. FCS (Invitrogen, cat.: 10500-064), and 0.1% sodium azide (Sigma, cat.: S8032) at 2×10⁶ cells/mL. 100 μL/well of the cell suspension were transferred into U-shaped 96 well plates, cells were pelleted at 400×g, 5 min. 4° C., and resuspended in 50 μL/well of diluted antibody constructs. […] After 40-50 minutes' incubation at 37° C., cells were washed 3-times with ice-cold FACS buffer. […] After the final incubation step, cells were washed 2-times with ice-cold FACS buffer, and the cell pellet was resuspended in 50 μL FACS buffer. Fluorescence intensity of >1×10⁴ viable cells was analyzed by flow cytometry and the median fluorescence intensity (MFI) was determined for each sample.

[13] = biological target: T2, CD16A endogenously expressed on primary …; experiment: flow cytometry on primary human NK cells at 37 °C, biotinylated antibody, streptavidin-FITC, in the presence of 10 mg/mL polyclonal human IgG (competitor)
Procedure: as §6

T1 sequence (P15328 25-234): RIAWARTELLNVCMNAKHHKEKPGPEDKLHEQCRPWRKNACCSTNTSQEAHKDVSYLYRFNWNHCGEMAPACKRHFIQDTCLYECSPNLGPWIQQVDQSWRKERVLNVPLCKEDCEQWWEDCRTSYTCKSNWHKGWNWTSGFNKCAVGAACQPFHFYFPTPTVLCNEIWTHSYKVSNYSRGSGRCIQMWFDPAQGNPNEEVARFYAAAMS

EC50 [nM] of ADCP, DK-MG cells [1]: 0.1 nM | EC50 [nM] of ADCP, HCC-78 cells [1]: 17.8 nM | EC50 [nM] of ADCP, HeLa cells [1]: 0.16 nM | Phagocytosis [%], 4 h ADCP, DK-MG cells [1]: 17.6% | Phagocytosis [%], 4 h ADCP, HCC-78 cells [1]: 26% | EC50 [pM] of ADCC, 4 h calcein release, NK cells E:T 5:1, IGROV-1 cells [2]: 1 pM | EC50 [pM] of ADCC, A2780 cells [2]: 5.5 pM | EC50 [pM] of ADCC, HCC-827 cells [2]: 2.8 pM | EC50 [pM] of ADCC, MDA-MB-231 cells [2]: 6.5 pM | EC50 [pM] of ADCC, NCI-H2110 cells [2]: 0.8 pM | EC50 [pM] of ADCC, OVCAR-3 cells [2]: 1.1 pM | fold-improvement in efficacy vs IgAb_335, ADCC, A2780 cells [2]: 2.9 fold | fold-improvement in efficacy vs IgAb_335, ADCC, HCC-827 cells [2]: 1.9 fold | fold-improvement in efficacy vs IgAb_335, ADCC, IGROV-1 cells [2]: 0.9 fold | fold-improvement in efficacy vs IgAb_335, ADCC, MDA-MB-231 cells [2]: 2.1 fold | fold-improvement in efficacy vs IgAb_335, ADCC, NCI-H2110 cells [2]: 1.2 fold | fold-improvement in efficacy vs IgAb_335, ADCC, OVCAR-3 cells [2]: 1.4 fold | fold-improvement in potency vs IgAb_335, ADCC, A2780 cells [2]: 593 fold | fold-improvement in potency vs IgAb_335, ADCC, HCC-827 cells [2]: 30.8 fold | fold-improvement in potency vs IgAb_335, ADCC, IGROV-1 cells [2]: 15.1 fold | fold-improvement in potency vs IgAb_335, ADCC, MDA-MB-231 cells [2]: 54 fold | fold-improvement in potency vs IgAb_335, ADCC, NCI-H2110 cells [2]: 34.4 fold | fold-improvement in potency vs IgAb_335, ADCC, OVCAR-3 cells [2]: 40.4 fold | Kd [3]: 2.7 nM | Kd [4]: 3.7 nM | Kd [5]: 2.5 nM | fold loss in KD induced by IgG [6]: 5.3 fold | Kd [7]: 4.3 nM | EC50 (read off the curve) [8]: ~3 nM | EC50 (read off the curve) [9]: ~2 nM | Kd [10]: 14.3 to 36.4 nM | Kd [11]: 23.1 nM | EC50 (read off the curve) [12]: ~4 nM | EC50 (read off the curve) [13]: ~20 nM
B1: scFv-IgAb_387 (FOLR1_1×CD16a3) (bispecific antibody)
heavy: EVQLVESGGGVVQPGRSLRLSCSASGFTFSGYGLSWVRQAPGKGLEWVAMISSGGSYTYYADSVKGRFAISRDNAKNTLFLQMDSLRPEDTGVYFCARHGDDPAWFAYWGQGTPVTVSSASTKGPSVFPLAPSSKSTSGGTAALGCLVKDYFPEPVTVSWNSGALTSGVHTFPAVLQSSGLYSLSSVVTVPSSSLGTQTYICNVNHKPSNTKVDKKVEPKSCDKTHTCPPCPAPEFEGGPSVFLFPPKPKDTLMISRTPEVTCVVVAVSHEDPEVKFNWYVDGVEVHNAKTKPREEQYNSTYRVVSVLTVLHQDWLNGKEYKCKVSNKALPAPIEKTISKAKGQPREPQVYTLPPSREEMTKNQVSLTCLVKGFYPSDIAVEWESNGQPENNYKTTPPVLDSDGSFFLYSKLTVDKSRWQQGNVFSCSVMHEALHNHYTQKSLSLSPGGGGGSGGGGSGGGGSGGGGSGGGGSGGGGSSYELTQPLSVSVALGQTARITCGGNNIGSKSVHWYQQKPGQAPVLVIYQDKKRPSGIPERFSGSNSGNTATLTISRAQAGDEADYYCQVWDDYIVLFGCGTKLTVLGGSGGSGGSGGSGGSGGSGGSQVQLVQSGAEVKKPGASVKVSCKASGYTFTNYYMQWVRQAPGQCLEWMGIINPSGGVTSYAQKFQGRVTMTRDTSTSTVYMELSSLRSEDTAVYYCARGSAYYYDFADYWGQGTLVTVSSG
light: DIQLTQSPSSLSASVGDRVTITCSVSSSISSNNLHWYQQKPGKAPKPWIYGTSNLASGVPSRFSGSGSGTDYTFTISSLQPEDIATYYCQQWSSYPYMYTFGQGTKVEIKRTVAAPSVFIFPPSDEQLKSGTASVVCLLNNFYPREAKVQWKVDNALQSGNSQESVTEQDSKDSTYSLSSTLTLSKADYEKHKVYACEVTHQGLSSPVTKSFNRGEC
modifications: Chemically biotinylated (NHS-PEG4-biotin) in Example 22 only.
notes: Tetravalent bispecific scFv-IgAb; also called FOLR1×CD16A scFv-IgAb_387; FOLR1/CD16A scFv-IgAb_387; copies: 2 + 2
